Data taken from US20160264960A1 (Chugai, published 2016).

Columns and labels:
[1] = molecular target: T1, human plexin A1 protein sema domain (from glutamic acid at position 28 to serine at position 514) tagged at … (human, UniProt Q9UIW2 28-514); experiment: SPR, Biacore T200; the parent antibody itself (control)
T1 construct: also called human plexin A1 sema domain
T1 sequence: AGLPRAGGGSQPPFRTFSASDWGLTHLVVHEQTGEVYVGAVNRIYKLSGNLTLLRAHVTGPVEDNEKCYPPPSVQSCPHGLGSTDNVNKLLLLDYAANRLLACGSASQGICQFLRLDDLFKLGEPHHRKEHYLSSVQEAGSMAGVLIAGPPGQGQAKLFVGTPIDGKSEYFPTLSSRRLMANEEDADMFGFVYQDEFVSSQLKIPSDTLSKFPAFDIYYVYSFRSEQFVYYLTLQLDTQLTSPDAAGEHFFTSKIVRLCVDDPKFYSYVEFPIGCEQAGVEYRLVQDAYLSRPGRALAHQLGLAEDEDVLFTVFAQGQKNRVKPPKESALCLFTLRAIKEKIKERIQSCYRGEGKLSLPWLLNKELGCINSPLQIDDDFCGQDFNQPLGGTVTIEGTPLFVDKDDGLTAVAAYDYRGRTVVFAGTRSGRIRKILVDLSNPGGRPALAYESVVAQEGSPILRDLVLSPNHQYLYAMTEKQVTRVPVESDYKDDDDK
Procedure: (§1) Each antibody obtained in the paragraph (10-1) was evaluated for its binding activity against the antigen by surface plasmon resonance (SPR) analysis.
(§2) In the SPR analysis, the antibody was analyzed using Biacore T200 (GE Healthcare Japan Corp.). The anti-human plexin A1 antibody was immobilized onto the surface of Sensor Chip CM4 using Recombinant Protein A/G (Thermo Fisher Scientific Inc.) and Amine Coupling Kit (GE Healthcare Japan Corp.). The antigen used was a human plexin A1 protein sema domain (from glutamic acid at position 28 to serine at position 514) tagged at the C terminus of the protein with FLAG tag. The antigen was prepared as follows: an expression vector carrying a cDNA corresponding to the human plexin A1 sema domain was transferred to FreeStyle 293 cells. After culture, the obtained culture solution was passed through an anti-FLAG-M2 antibody-immobilized affinity column. A fraction eluted with the FALG peptide was purified by gel filtration. The obtained antigen was serially diluted with 20 mM ACES, 150 mM NaCl, 0.05% polysorbate 20, and 1.2 mM CaCl₂ (pH 7.4) and added to the sensor chip at a flow rate of 30 μL/min. In this assay system, the dissociation constant (KD) between the human plexin A1 protein and the anti-human plexin A1 antibody was calculated using data analysis software (BIA T200 Evaluation software ver. 2).

[2] = molecular target: T1, human plexin A1 protein sema domain …; experiment: SPR, Biacore T200; antibody held by Protein A/G on CM4 chip, sema domain as analyte
Procedure: as §1, §2

[3] = molecular target: T1, human plexin A1 protein sema domain …; experiment: SPR, Biacore T200; KD against parent antibody hPANLB2-3_264
Procedure: as §1, §2

[4] = molecular target: T1, human plexin A1 protein sema domain …; experiment: SPR, Biacore T200; KD against parent antibody hPANLB2-3_359
Procedure: as §1, §2

[5] = molecular target: T2, biotinylated human IL-6R (shIL6R-Avitag) (human, UniProt P08887 20-357, biotinylated at the C-terminal AviTag sequence by biotin ligase (BirA)); experiment: phage ELISA, plate coated with biotinylated human IL-6R, detection with HRP anti-M13 antibody, absorbance at 450 nm
T2 construct: It was captured on a StreptaWell plate in the phage ELISA; its preparation is described in (3-3); also called biotinylated hIL-6R
T2 sequence: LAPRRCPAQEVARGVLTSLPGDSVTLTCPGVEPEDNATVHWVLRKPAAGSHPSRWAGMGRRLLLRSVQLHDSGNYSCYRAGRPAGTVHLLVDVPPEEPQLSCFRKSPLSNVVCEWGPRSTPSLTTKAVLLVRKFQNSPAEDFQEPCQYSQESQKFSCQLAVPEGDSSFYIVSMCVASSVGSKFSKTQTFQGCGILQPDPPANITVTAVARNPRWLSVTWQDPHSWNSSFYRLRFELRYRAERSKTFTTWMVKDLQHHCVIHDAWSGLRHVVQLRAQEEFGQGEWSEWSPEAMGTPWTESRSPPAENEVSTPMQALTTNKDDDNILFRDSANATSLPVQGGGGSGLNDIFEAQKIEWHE
Procedure: The phage ELISA method was carried out to confirm Fab display on the produced phage and to confirm the ability to bind to the antigen. StreptaWell 96-well microtiter plate (F. Hoffmann-La Roche, Ltd.) was coated by the addition of 100 μL of PBS containing Goat anti-Human Kappa Biotin antibody (EY Laboratories, Inc.) or biotinylated human IL-6R. Each well of the plate was washed with 0.1×TBST (0.1×TBS containing 0.1% Tween 20) to remove the antigen. Then, the plate was blocked for 1 hour or longer by the addition of 250 μL of 0.02% skim milk-0.1×TBS (0.1×TBS containing 0.02% skim milk) to the well. […] After washing with 0.1×TBST, an HRP-conjugated anti-M13 antibody (Amersham Pharmacia Biotech) diluted with 0.1×TBST was added to each well, and the plate was incubated for 1 hour. After washing with 0.1×TBST, TMB single solution (Zymed Laboratories Inc.) was added to each well. The color reaction of the solution was further terminated by the addition of sulfuric acid. Then, the absorbance was measured at 450 nm.

Binder	Relative KD improvement [1]	Kd [2]	Relative KD improvement [3]	Relative KD improvement [4]	binding result [5]
hPANLB2-3_264 (antibody, human IgG1, lambda, V domains shown, Parent anti-plexin A1 antibody, IgG) VH: QVQLQQSGPGLVKPSQTLSLTCAISGDSVSSNSAAWNWIRQSPSRGLEWLGRTYYRSKWYNDYAVSVKSRITINPDTSKNQFSLQLNSVTPEDTAVYYCARDRGYSYGFDYWGQGTLVTVSS VL: SYLLTQPPSVSVSPGQTASITCSGDKLGQKFVSWYQQRPGQSPVLVIYQDTKRPSGIPERFSGSNSGNTATLTISGTQAMDEADYYCQAWDSSTAGVFGGGTNLTVLG	1 fold	173 nM			
PLR3H264#022 (antibody, human IgG1, lambda, V domains shown, IgG from the 264H-NL library) VH: QVQLQQSGPGLVKPSQTLSLTCAISGDSVSSNSAAWNWIRQSPSRGLEWLGRTYYRSKWYNDYAVSVKSRITINPDTSKNQFSLQLNSVTPEDTAVYYCARDRGYSYGFDYWGQGTLVTVSS VL: SYVLTQPRSVSVSPGQTTRITCSGQNLGEKYISWYRQKPGQSPEVLIYEDKRRPSGIPERISGANSGGTATLTISGTQAMDEADYFCQAWVSSTEGVFGGGTRLTVLR		56.9 nM	3 fold		
PLR4H264#061 (antibody, human IgG1, lambda, V domains shown, IgG from the 264H-NL library) VH: QVQLQQSGPGLVKPSQTLSLTCAISGDSVSSNSAAWNWIRQSPSRGLEWLGRTYYRSKWYNDYAVSVKSRITINPDTSKNQFSLQLNSVTPEDTAVYYCARDRGYSYGFDYWGQGTLVTVSS VL: SYELTQPPSVAVSPGQTASITCSGHKLGEKYASWYQQKPGQSPVLVIYQDTKRPSGIPERFSGSNSGNTATLTISGTQAMDEADYYCQAWDSSSVCVFGTGTKVTVLG		41 nM	4.2 fold		
PLR2H264#002 (antibody, human IgG1, lambda, V domains shown, IgG from the 264H-NL library) VH: QVQLQQSGPGLVKPSQTLSLTCAISGDSVSSNSAAWNWIRQSPSRGLEWLGRTYYRSKWYNDYAVSVKSRITINPDTSKNQFSLQLNSVTPEDTAVYYCARDRGYSYGFDYWGQGTLVTVSS VL: SYELTQPPSVSVSPGQTASITCSGDKLGNKYVSWYQRRPGQSPVLVIYQDSKRPSGIPERFSGSNSGNTATLTISGTQSMDEADYYCQAWYSSSVGVFGGGTRLTVLG		138 nM	1.3 fold		
hPANLB2-3_342 (antibody, human IgG1, lambda, V domains shown, Parent anti-plexin A1 antibody, IgG) VH: EVQLVQSGAEVKKPGASVKVSCKASGYTFTSYGISWVRQAPGQGLEWMGWISAYNGNTNYAQKLQGRVTMTTDTSTSTAYMELRSLRSDDTAVYYCARHAGYYYGMDVWGKGTMVTVSS VL: SYELTQPPSVSVSPGQTASITCSGDKLGEKYASWYQQKPGQSPVLVIYQDSKRPSGIPERFSGSNSGNMATLTISGTQAVDEADYYCQTWDSNTAFVFGTGTKVTVLG	1 fold	34.5 nM			
PLR2H359#087 (antibody, human IgG1, lambda, V domains shown, IgG from the 359H-NL library) VH: QVQLVQSGAEVKKPGASVKVSCKASGYTFTSYYMHWVRQAPGQGLEWMGIINPSGGSTSYAQKFQGRVTMTRDTSTSTVYMELSSLRSEDTAVYYCARAPGHYYYGMDVWGQGTTVTVSS VL: SSELTQPPSMSVSPGQTASISCSGDRLGEKYASWYQQKPGQSPVLVIYQDNKRPSGIPERFSGSNSGNTATLTISGTQAIDEADYYCQAWDSNSAYVFGTGTKVTVLG		4.62 nM		2.9 fold	
PF1 Fab displayed on phage (PF1 H chain Fd-g3p fusion with PF1 L chain) (Fab, V domains shown, also called Fab-displaying phage; phage produced with M13KO7TC-PF1L; not shown: linker peptide and gene 3 protein (g3p) fused to the C terminus of the Fd) VH: QVQLQESGPGLVKPSETLSLTCAVSGYSISDDHAWSWVRQPPGEGLEWIGYISYSGITNYNPSLKGRVTISRDTSKNQFSLKLSSVTAADTAAYYCARVLARITAMDYWGEGTLVTVSS VL: DIQMTQSPSSLSASVGDSVTITCQASQDISSYLNWYQQKPGKAPELLIYYGSELHSGVPSRFSGSGSGTDFTFTISSLEAEDAATYYCGQGNRLPYTFGQGTKVEIER					binds
hPANLB2-3_359 (antibody, human IgG1, lambda, V domains shown, Parent anti-plexin A1 antibody, IgG) VH: QVQLVQSGAEVKKPGASVKVSCKASGYTFTSYYMHWVRQAPGQGLEWMGIINPSGGSTSYAQKFQGRVTMTRDTSTSTVYMELSSLRSEDTAVYYCARAPGHYYYGMDVWGQGTTVTVSS VL: SYELTQPPSVSVSPGQTASITCSGDKVGEKYASWYQQRPGQSPVLVIYQDTKRPSGIPERFSGSNSGNTATLTISGTQAIDDADYYCQAWDNSAYVIFGGGTKLTVLG	1 fold	13.5 nM			
PLR2H359#062 (antibody, human IgG1, lambda, V domains shown, IgG from the 359H-NL library) VH: QVQLVQSGAEVKKPGASVKVSCKASGYTFTSYYMHWVRQAPGQGLEWMGIINPSGGSTSYAQKFQGRVTMTRDTSTSTVYMELSSLRSEDTAVYYCARAPGHYYYGMDVWGQGTTVTVSS VL: SYELTQPPSLSVSPGQTASITCSGDKLGEKYACWYQQKPGQSPALVIYQDTKRPSGIPERFSGSNSGNTATLTISGTQAMDEADYSCQAWDTNTGEVVFGGGTKLTVLG		3.93 nM		3.4 fold	
phage produced by the H chain (PF1H)-expressing phagemid vector and the negative control helper phage M13KO7TC (other, Control phage without an L chain; not shown: linker peptide and gene 3 protein (g3p)) heavy: QVQLQESGPGLVKPSETLSLTCAVSGYSISDDHAWSWVRQPPGEGLEWIGYISYSGITNYNPSLKGRVTISRDTSKNQFSLKLSSVTAADTAAYYCARVLARITAMDYWGEGTLVTVSSASTKGPSVFPLAPSSKSTSGGTAALGCLVKDYFPEPVTVSWNSGALTSGVHTFPAVLQSSGLYSLSSVVTVPSSSLGTQTYICNVNHKPSNTKVDKK					no binding
